One data set addresses T1, PorXFJ (Flavobacterium johnsoniae, UniProt A5FFU4).
T1 construct: gene Fjoh_2906
T1 sequence (A5FFU4 1-517): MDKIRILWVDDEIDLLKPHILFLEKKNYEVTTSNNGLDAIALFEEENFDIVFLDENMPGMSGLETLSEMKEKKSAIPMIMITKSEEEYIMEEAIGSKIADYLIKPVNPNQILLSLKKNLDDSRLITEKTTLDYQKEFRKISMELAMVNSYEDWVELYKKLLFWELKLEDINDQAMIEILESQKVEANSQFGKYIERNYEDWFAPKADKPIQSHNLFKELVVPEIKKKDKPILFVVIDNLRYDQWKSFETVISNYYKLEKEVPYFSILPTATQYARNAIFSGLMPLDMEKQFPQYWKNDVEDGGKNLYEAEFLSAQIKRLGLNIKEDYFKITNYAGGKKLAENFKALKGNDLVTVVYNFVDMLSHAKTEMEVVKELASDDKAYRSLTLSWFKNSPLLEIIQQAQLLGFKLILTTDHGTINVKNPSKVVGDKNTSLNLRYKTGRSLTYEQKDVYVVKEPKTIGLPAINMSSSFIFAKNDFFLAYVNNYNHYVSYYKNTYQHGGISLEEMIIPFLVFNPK
The settings on record: phosphate analogue; bound at REC phosphorylation site (Asp54) and at APS catalytic site near Thr271; primitive orthorhombic crystal form.

Data set [1] concerns the target T2, THB + APS truncation mutant of PorXFJ (Flavobacterium johnsoniae, UniProt A5FFU4).
T2 construct: gene Fjoh_2906; REC domain truncated, residues 126–end; ~46 kDa; E. coli BL21
T2 sequence (A5FFU4 126-517): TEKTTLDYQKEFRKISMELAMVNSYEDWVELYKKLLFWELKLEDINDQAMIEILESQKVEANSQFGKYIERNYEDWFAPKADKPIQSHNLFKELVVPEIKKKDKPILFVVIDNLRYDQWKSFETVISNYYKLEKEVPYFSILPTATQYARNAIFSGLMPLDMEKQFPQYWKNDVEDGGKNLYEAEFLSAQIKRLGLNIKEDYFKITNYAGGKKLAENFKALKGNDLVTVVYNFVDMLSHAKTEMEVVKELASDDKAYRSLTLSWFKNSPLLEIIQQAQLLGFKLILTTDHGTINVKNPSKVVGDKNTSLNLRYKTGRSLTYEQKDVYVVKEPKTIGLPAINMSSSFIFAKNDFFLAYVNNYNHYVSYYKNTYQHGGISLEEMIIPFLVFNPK
Kind of data set: phosphodiesterase assay. The settings on record: zinc-dependent. In kind it is biochemical.

Data set [2] concerns the molecule itself. Kind of data set: SEC; protein incubated with zinc only (no AcP); Superdex200inc 10/300 GL for wild type and point mutants, Superdex75inc 10/300 GL for truncations; monomer to dimer. In general terms: In gel filtration, larger molecules generally elute earlier.
Data set [3] concerns the molecule itself. Kind of data set: SEC; protein incubated with acetyl phosphate (AcP) in the presence of magnesium; Superdex200inc 10/300 GL for wild type and point mutants, Superdex75inc 10/300 GL for truncations; monomer to dimer.
Data set [4] deals with the molecule itself. Kind of data set: SEC; protein incubated with zinc only (no AcP); Superdex200inc 10/300 GL for wild type and point mutants, Superdex75inc 10/300 GL for truncations; monomer to dimer. This is another data set of the same source.
Data set [5] deals with the molecule itself. Briefly: SEC; protein incubated with acetyl phosphate (AcP) in the presence of magnesium; Superdex200inc 10/300 GL for wild type and point mutants, Superdex75inc 10/300 GL for truncations; monomer to dimer. The source holds these as a separate data set.

Regarding `[F][Be-]([F])[F]` [BeF3], the X-ray co-crystal structure result at PorXFJ was “we have co-crystallized PorXFJ with the phosphate analog, BeF3”.

On to `O=[N+]([O-])c1ccc(OP(=O)(O)Oc2ccc([N+](=O)[O-])cc2)cc1` [bis(p-nitrophenyl) phosphate], for which the phosphodiesterase assay entry in data set [1] was “full-length PorXFJ and the THB + APS truncation mutant”.

B1: PorXFJ REC + THB domains (1–208) (domain or fragment, UniProt A5FFU4 1-208, looked up)
chain: MDKIRILWVDDEIDLLKPHILFLEKKNYEVTTSNNGLDAIALFEEENFDIVFLDENMPGMSGLETLSEMKEKKSAIPMIMITKSEEEYIMEEAIGSKIADYLIKPVNPNQILLSLKKNLDDSRLITEKTTLDYQKEFRKISMELAMVNSYEDWVELYKKLLFWELKLEDINDQAMIEILESQKVEANSQFGKYIERNYEDWFAPKADK
notes: also called REC + THB domains truncated variant; source: E. coli BL21, purified (Ni-NTA, thrombin cleavage, SEC); not shown: 10x-His, N-terminal, cleaved
For B1, the binding result in data set [2] is on record as “binds”.

B2: PorX from Flavobacterium johnsoniae (PorXFJ), wild type, full length (natural protein, UniProt A5FFU4 1-517, looked up)
chain: MDKIRILWVDDEIDLLKPHILFLEKKNYEVTTSNNGLDAIALFEEENFDIVFLDENMPGMSGLETLSEMKEKKSAIPMIMITKSEEEYIMEEAIGSKIADYLIKPVNPNQILLSLKKNLDDSRLITEKTTLDYQKEFRKISMELAMVNSYEDWVELYKKLLFWELKLEDINDQAMIEILESQKVEANSQFGKYIERNYEDWFAPKADKPIQSHNLFKELVVPEIKKKDKPILFVVIDNLRYDQWKSFETVISNYYKLEKEVPYFSILPTATQYARNAIFSGLMPLDMEKQFPQYWKNDVEDGGKNLYEAEFLSAQIKRLGLNIKEDYFKITNYAGGKKLAENFKALKGNDLVTVVYNFVDMLSHAKTEMEVVKELASDDKAYRSLTLSWFKNSPLLEIIQQAQLLGFKLILTTDHGTINVKNPSKVVGDKNTSLNLRYKTGRSLTYEQKDVYVVKEPKTIGLPAINMSSSFIFAKNDFFLAYVNNYNHYVSYYKNTYQHGGISLEEMIIPFLVFNPK
notes: also called WT; Fjoh_2906; source: E. coli BL21, purified (Ni-NTA, thrombin cleavage, SEC); not shown: 10x-His, N-terminal, cleaved
As to B2, the binding result in data set [3] was “binds”.

B3: PorXFJ L113E (REC domain dimerization interface mutant) (natural protein, UniProt A5FFU4 1-517, looked up)
chain: MDKIRILWVDDEIDLLKPHILFLEKKNYEVTTSNNGLDAIALFEEENFDIVFLDENMPGMSGLETLSEMKEKKSAIPMIMITKSEEEYIMEEAIGSKIADYLIKPVNPNQILESLKKNLDDSRLITEKTTLDYQKEFRKISMELAMVNSYEDWVELYKKLLFWELKLEDINDQAMIEILESQKVEANSQFGKYIERNYEDWFAPKADKPIQSHNLFKELVVPEIKKKDKPILFVVIDNLRYDQWKSFETVISNYYKLEKEVPYFSILPTATQYARNAIFSGLMPLDMEKQFPQYWKNDVEDGGKNLYEAEFLSAQIKRLGLNIKEDYFKITNYAGGKKLAENFKALKGNDLVTVVYNFVDMLSHAKTEMEVVKELASDDKAYRSLTLSWFKNSPLLEIIQQAQLLGFKLILTTDHGTINVKNPSKVVGDKNTSLNLRYKTGRSLTYEQKDVYVVKEPKTIGLPAINMSSSFIFAKNDFFLAYVNNYNHYVSYYKNTYQHGGISLEEMIIPFLVFNPK
notes: source: E. coli BL21, purified (Ni-NTA, thrombin cleavage, SEC); not shown: 10x-His, N-terminal, cleaved
Regarding B3, in data set [4], the binding result is “binds”.

B4: PorXFJ D360A/H364A double mutant (zinc coordination, Zn1 site) (natural protein, UniProt A5FFU4 1-517, looked up)
chain: MDKIRILWVDDEIDLLKPHILFLEKKNYEVTTSNNGLDAIALFEEENFDIVFLDENMPGMSGLETLSEMKEKKSAIPMIMITKSEEEYIMEEAIGSKIADYLIKPVNPNQILLSLKKNLDDSRLITEKTTLDYQKEFRKISMELAMVNSYEDWVELYKKLLFWELKLEDINDQAMIEILESQKVEANSQFGKYIERNYEDWFAPKADKPIQSHNLFKELVVPEIKKKDKPILFVVIDNLRYDQWKSFETVISNYYKLEKEVPYFSILPTATQYARNAIFSGLMPLDMEKQFPQYWKNDVEDGGKNLYEAEFLSAQIKRLGLNIKEDYFKITNYAGGKKLAENFKALKGNDLVTVVYNFVAMLSAAKTEMEVVKELASDDKAYRSLTLSWFKNSPLLEIIQQAQLLGFKLILTTDHGTINVKNPSKVVGDKNTSLNLRYKTGRSLTYEQKDVYVVKEPKTIGLPAINMSSSFIFAKNDFFLAYVNNYNHYVSYYKNTYQHGGISLEEMIIPFLVFNPK
notes: as for B3
For the molecule B4, in data set [5], the binding result is recorded as “binds”.

B5: PorXFJ D54A (REC domain phosphorylation-null mutant) (natural protein, UniProt A5FFU4 1-517, looked up)
chain: MDKIRILWVDDEIDLLKPHILFLEKKNYEVTTSNNGLDAIALFEEENFDIVFLAENMPGMSGLETLSEMKEKKSAIPMIMITKSEEEYIMEEAIGSKIADYLIKPVNPNQILLSLKKNLDDSRLITEKTTLDYQKEFRKISMELAMVNSYEDWVELYKKLLFWELKLEDINDQAMIEILESQKVEANSQFGKYIERNYEDWFAPKADKPIQSHNLFKELVVPEIKKKDKPILFVVIDNLRYDQWKSFETVISNYYKLEKEVPYFSILPTATQYARNAIFSGLMPLDMEKQFPQYWKNDVEDGGKNLYEAEFLSAQIKRLGLNIKEDYFKITNYAGGKKLAENFKALKGNDLVTVVYNFVDMLSHAKTEMEVVKELASDDKAYRSLTLSWFKNSPLLEIIQQAQLLGFKLILTTDHGTINVKNPSKVVGDKNTSLNLRYKTGRSLTYEQKDVYVVKEPKTIGLPAINMSSSFIFAKNDFFLAYVNNYNHYVSYYKNTYQHGGISLEEMIIPFLVFNPK
notes: as for B3
For the molecule B5, the binding result in data set [4] is “binds”.

B6: PorXFJ S384A/S388E double mutant (APS domain dimerization interface) (natural protein, UniProt A5FFU4 1-517, looked up)
chain: MDKIRILWVDDEIDLLKPHILFLEKKNYEVTTSNNGLDAIALFEEENFDIVFLDENMPGMSGLETLSEMKEKKSAIPMIMITKSEEEYIMEEAIGSKIADYLIKPVNPNQILLSLKKNLDDSRLITEKTTLDYQKEFRKISMELAMVNSYEDWVELYKKLLFWELKLEDINDQAMIEILESQKVEANSQFGKYIERNYEDWFAPKADKPIQSHNLFKELVVPEIKKKDKPILFVVIDNLRYDQWKSFETVISNYYKLEKEVPYFSILPTATQYARNAIFSGLMPLDMEKQFPQYWKNDVEDGGKNLYEAEFLSAQIKRLGLNIKEDYFKITNYAGGKKLAENFKALKGNDLVTVVYNFVDMLSHAKTEMEVVKELASDDKAYRALTLEWFKNSPLLEIIQQAQLLGFKLILTTDHGTINVKNPSKVVGDKNTSLNLRYKTGRSLTYEQKDVYVVKEPKTIGLPAINMSSSFIFAKNDFFLAYVNNYNHYVSYYKNTYQHGGISLEEMIIPFLVFNPK
notes: also called S348A/S388E (as printed once); source: E. coli BL21, purified (Ni-NTA, thrombin cleavage, SEC); not shown: 10x-His, N-terminal, cleaved
As for B6, in data set [5], the binding result is on record as “binds”.

B7: PorXFJ T271V (APS domain catalytically inactive mutant) (natural protein, UniProt A5FFU4 1-517, looked up)
chain: MDKIRILWVDDEIDLLKPHILFLEKKNYEVTTSNNGLDAIALFEEENFDIVFLDENMPGMSGLETLSEMKEKKSAIPMIMITKSEEEYIMEEAIGSKIADYLIKPVNPNQILLSLKKNLDDSRLITEKTTLDYQKEFRKISMELAMVNSYEDWVELYKKLLFWELKLEDINDQAMIEILESQKVEANSQFGKYIERNYEDWFAPKADKPIQSHNLFKELVVPEIKKKDKPILFVVIDNLRYDQWKSFETVISNYYKLEKEVPYFSILPTAVQYARNAIFSGLMPLDMEKQFPQYWKNDVEDGGKNLYEAEFLSAQIKRLGLNIKEDYFKITNYAGGKKLAENFKALKGNDLVTVVYNFVDMLSHAKTEMEVVKELASDDKAYRSLTLSWFKNSPLLEIIQQAQLLGFKLILTTDHGTINVKNPSKVVGDKNTSLNLRYKTGRSLTYEQKDVYVVKEPKTIGLPAINMSSSFIFAKNDFFLAYVNNYNHYVSYYKNTYQHGGISLEEMIIPFLVFNPK
notes: as for B3
B7: in data set [5], the binding result was “binds”.

B8: PorXFJ REC domain (1–121) (domain or fragment, UniProt A5FFU4 1-121, looked up)
chain: MDKIRILWVDDEIDLLKPHILFLEKKNYEVTTSNNGLDAIALFEEENFDIVFLDENMPGMSGLETLSEMKEKKSAIPMIMITKSEEEYIMEEAIGSKIADYLIKPVNPNQILLSLKKNLDD
notes: also called REC domain only truncation variant; source: E. coli BL21, purified (Ni-NTA, thrombin cleavage, SEC); not shown: 10x-His, N-terminal, cleaved
For B8, the binding result in data set [5] is “binds”.

B9: PorXFJ APS + THB domains (126–end) (domain or fragment, UniProt A5FFU4 126-517, looked up)
chain: TEKTTLDYQKEFRKISMELAMVNSYEDWVELYKKLLFWELKLEDINDQAMIEILESQKVEANSQFGKYIERNYEDWFAPKADKPIQSHNLFKELVVPEIKKKDKPILFVVIDNLRYDQWKSFETVISNYYKLEKEVPYFSILPTATQYARNAIFSGLMPLDMEKQFPQYWKNDVEDGGKNLYEAEFLSAQIKRLGLNIKEDYFKITNYAGGKKLAENFKALKGNDLVTVVYNFVDMLSHAKTEMEVVKELASDDKAYRSLTLSWFKNSPLLEIIQQAQLLGFKLILTTDHGTINVKNPSKVVGDKNTSLNLRYKTGRSLTYEQKDVYVVKEPKTIGLPAINMSSSFIFAKNDFFLAYVNNYNHYVSYYKNTYQHGGISLEEMIIPFLVFNPK
notes: also called THB + APS truncation mutant; THB + APS domains; source: E. coli BL21, purified (Ni-NTA, thrombin cleavage, SEC); not shown: 10x-His, N-terminal, cleaved
Take B9: in data set [2], the binding result is recorded as “binds”.
